B1: CompAb1 heavy chain variant N101A (antibody, human IgG1, V domains shown)
VH: QVQLQESGPGLVKPSETLSLTCIVSGGSISGYFWNWIRQPPGKGLEWIGYIYYSGTTIYNPSLKSRFTISLDTSKNQFSLKLTSVTAADTAVYYCARESYAPSPRYFDHWGQGTLVTVSS
VL: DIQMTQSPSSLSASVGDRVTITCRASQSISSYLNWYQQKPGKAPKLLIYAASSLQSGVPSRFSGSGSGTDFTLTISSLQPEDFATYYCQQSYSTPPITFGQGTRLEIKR
notes: human IgG1 constant region; tested as CHOt supernatant; also called Sample Number 2
B2: CompAb1 heavy chain variant N101P (antibody, human IgG1, V domains shown)
VH: B1 VH with A101P
VL: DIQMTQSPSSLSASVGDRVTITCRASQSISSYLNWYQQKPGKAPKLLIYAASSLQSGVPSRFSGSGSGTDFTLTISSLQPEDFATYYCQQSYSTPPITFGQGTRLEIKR
notes: human IgG1 constant region; tested as CHOt supernatant; also called Sample Number 12
B3: CompAb1 heavy chain variant N101F (antibody, human IgG1, V domains shown)
VH: B1 VH with A101F
VL: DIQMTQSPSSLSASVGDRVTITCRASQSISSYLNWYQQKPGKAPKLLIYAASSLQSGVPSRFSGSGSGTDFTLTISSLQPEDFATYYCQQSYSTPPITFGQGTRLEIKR
notes: human IgG1 constant region; tested as CHOt supernatant; also called Sample Number 5
B4: CompAb1 heavy chain variant N101W (antibody, human IgG1, V domains shown)
VH: B1 VH with A101W
VL: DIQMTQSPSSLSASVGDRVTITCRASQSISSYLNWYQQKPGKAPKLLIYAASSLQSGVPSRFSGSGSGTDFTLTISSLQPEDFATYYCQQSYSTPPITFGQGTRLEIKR
notes: human IgG1 constant region; tested as CHOt supernatant; also called Sample Number 18
B5: CompAb1 heavy chain variant N101H (antibody, human IgG1, V domains shown)
VH: B1 VH with A101H
VL: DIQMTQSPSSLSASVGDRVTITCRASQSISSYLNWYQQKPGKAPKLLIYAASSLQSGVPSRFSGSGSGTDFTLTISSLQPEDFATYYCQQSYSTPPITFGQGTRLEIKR
notes: human IgG1 constant region; tested as CHOt supernatant; also called Sample Number 7
B6: CompAb1 heavy chain variant N101L (antibody, human IgG1, V domains shown)
VH: B1 VH with A101L
VL: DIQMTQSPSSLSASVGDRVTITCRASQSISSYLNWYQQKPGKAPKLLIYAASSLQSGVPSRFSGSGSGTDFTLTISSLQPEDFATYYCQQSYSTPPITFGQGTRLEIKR
notes: human IgG1 constant region; tested as CHOt supernatant; also called Sample Number 10
B7: CompAb1 heavy chain variant S103K (antibody, human IgG1, V domains shown)
VH: B1 VH with A101N, S103K
VL: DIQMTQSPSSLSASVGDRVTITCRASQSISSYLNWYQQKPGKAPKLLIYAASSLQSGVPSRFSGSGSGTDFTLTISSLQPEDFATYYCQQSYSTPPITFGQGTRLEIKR
notes: human IgG1 constant region; tested as CHOt supernatant; also called Sample Number 27
B8: CompAb1 heavy chain variant N101Y (antibody, human IgG1, V domains shown)
VH: B1 VH with A101Y
VL: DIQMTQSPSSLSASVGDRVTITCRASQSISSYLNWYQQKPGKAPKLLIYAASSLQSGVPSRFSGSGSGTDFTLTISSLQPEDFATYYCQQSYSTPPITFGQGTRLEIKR
notes: human IgG1 constant region; tested as CHOt supernatant; also called Sample Number 19
B9: CompAb1 heavy chain variant S103R (antibody, human IgG1, V domains shown)
VH: B1 VH with A101N, S103R
VL: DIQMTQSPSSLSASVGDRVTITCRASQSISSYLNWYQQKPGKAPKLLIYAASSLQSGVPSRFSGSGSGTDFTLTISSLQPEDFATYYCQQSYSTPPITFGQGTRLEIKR
notes: human IgG1 constant region; tested as CHOt supernatant; also called Sample Number 33
B10: mAb2 (antibody, human IgG1, kappa, V domains shown)
VH: B1 VH with A101E
VL: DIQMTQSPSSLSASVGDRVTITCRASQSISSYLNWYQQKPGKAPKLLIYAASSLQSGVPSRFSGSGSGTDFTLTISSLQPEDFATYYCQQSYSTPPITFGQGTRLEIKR
notes: Human IgG1; N101E variant of CompAb1; also called N101E Variant; N101E
B11: CompAb1 (antibody, V domains shown)
VH: B1 VH with A101N
VL: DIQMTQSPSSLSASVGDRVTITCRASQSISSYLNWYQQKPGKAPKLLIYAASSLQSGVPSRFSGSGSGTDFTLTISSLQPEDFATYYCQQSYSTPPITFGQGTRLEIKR
notes: Human IgG1; also called WT; Sample Number 1
B12: mAb4 (antibody, human IgG1, kappa, V domains shown)
VH: B1 VH with A101T
VL: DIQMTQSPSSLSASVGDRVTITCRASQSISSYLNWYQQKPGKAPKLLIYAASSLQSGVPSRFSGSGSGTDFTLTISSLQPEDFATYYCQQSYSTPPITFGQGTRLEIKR
notes: Human IgG1; N101T variant of CompAb1; also called N101T Variant; N101T
B13: mAb3 (antibody, human IgG1, kappa, V domains shown)
VH: B1 VH with A101S
VL: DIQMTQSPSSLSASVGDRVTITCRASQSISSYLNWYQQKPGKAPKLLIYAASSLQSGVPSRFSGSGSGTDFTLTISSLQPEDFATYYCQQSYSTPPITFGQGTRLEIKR
notes: Human IgG1; N101S variant of CompAb1; also called N101S Variant; N101S
B14: hGITR.mmH (soluble monomeric recombinant human GITR ectodomain protein) (receptor)
chain: QRPTGGPGCGPGRLLLGTGTDARCCRVHTTRCCRDYPGEECCSEWDCMCVQPEFHCGDPCCTTCRHHPCPPGQGVQSQGKFSFGFQCIDCASGTFSGGHEGHCKPWTDCTQFGFLTVFPGNKTHNAVCVPGSPPAEPEQKLISEEDLGGEQKLISEEDLHHHHHH
notes: also called monomeric human GITR

Residue numbers refer to the chain shown, from its start. Names may count otherwise.

Sequence of human GITR-L (6His.GCN4.G4Sx3.hGITR-L) (Q9UNG2 52-177): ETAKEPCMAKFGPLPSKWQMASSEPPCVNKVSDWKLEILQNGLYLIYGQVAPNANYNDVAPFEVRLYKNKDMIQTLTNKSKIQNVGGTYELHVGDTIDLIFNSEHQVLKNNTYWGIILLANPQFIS

The target of one test is B14. The test can be described thus: SPR Biacore 2000 25C; CHOt supernatant antibody captured on anti-human Fc. Here is the method: (§1) Biacore experiments for antibodies secreted in conditioned culture medium were performed as follows. Using a Biacore 2000 instrument at 25° C., antibodies were captured for 80 seconds at a flow rate of 8 uL/min on a CM5 anti-humanFc-coupled surface. Approximately 1000-2000 RU of each antibody were captured. 100 nM hGITR.mmH (soluble monomeric hGITR, SEQ ID NO: 45) or 50 nM hGITR.mFc (dimeric Macaca fasicularis GITR, SEQ ID NO: 46) were injected over this surface for 2 minutes at a flow rate of 50 uL/min. Dissociation was measured for 2 minutes. The KD and t_{1/2} were calculated by fitting the double-referenced sensorgrams to a 1:1 binding model.
For orientation: SPR reads the build-up and loss of mass on a sensor chip optically.
Take B1: the binding result was “no binding (tested: 100 nM hGITR.mmH)”.

For B2, the binding result is listed as “no binding (tested: 100 nM hGITR.mmH)”.

For the molecule B3, the binding result was “no binding (tested: 100 nM hGITR.mmH)”.

Consider B4, for which the binding result is on record as “no binding (tested: 100 nM hGITR.mmH)”.

As to B5, the binding result is reported as “no binding (tested: 100 nM hGITR.mmH)”.

As to B6, the binding result is reported as “no binding (tested: 100 nM hGITR.mmH)”.

As to B7, the binding result is reported as “no binding (tested: 100 nM hGITR.mmH)”.

In the case of B8, the binding result was “no binding (tested: 100 nM hGITR.mmH)”.

In the case of B9, the binding result is on record as “no binding (tested: 100 nM hGITR.mmH)”.

For a further test, the target named is T1, hGITR.mFc (dimeric recombinant human GITR ectodomain protein, mouse Fc fusion) (human).
T1 construct: also called dimeric human GITR; dimeric GITR
T1 chain: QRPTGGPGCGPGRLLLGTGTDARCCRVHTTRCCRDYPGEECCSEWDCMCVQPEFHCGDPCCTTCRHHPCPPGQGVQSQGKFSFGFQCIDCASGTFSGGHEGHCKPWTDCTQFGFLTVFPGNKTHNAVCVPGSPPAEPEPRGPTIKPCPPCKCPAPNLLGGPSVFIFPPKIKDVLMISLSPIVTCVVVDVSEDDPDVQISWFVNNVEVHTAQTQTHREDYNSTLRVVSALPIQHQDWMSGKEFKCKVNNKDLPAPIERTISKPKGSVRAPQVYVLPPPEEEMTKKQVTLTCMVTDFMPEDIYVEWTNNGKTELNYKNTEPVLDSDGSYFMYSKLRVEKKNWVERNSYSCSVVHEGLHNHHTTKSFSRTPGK
The description is as above. The protocol:
as §1
As to B2, the binding result is on record as “no binding (tested: 50 nM hGITR.mFc)”.

For the molecule B3, the binding result is “no binding (tested: 50 nM hGITR.mFc)”.

For the molecule B4, the binding result was “no binding (tested: 50 nM hGITR.mFc)”.

Take B5: the binding result is recorded as “no binding (tested: 50 nM hGITR.mFc)”.

As for B8, the binding result is on record as “no binding (tested: 50 nM hGITR.mFc)”.

The next test has as its target T1, hGITR.mFc (dimeric recombinant human …). As to the kind of experiment: SPR Biacore T-200; purified antibody captured on anti-human Fc; 5 nM hGITR.mFc. Here is the method: (§2) For purified antibodies, Biacore experiments were performed as follows. Using a Biacore T-200 instrument, antibodies were captured for 30 seconds at a flow rate of 8 uL/min on a CM5 anti-humanFc-coupled surface. Approximately 120 RU of each antibody were captured. 10 nM hGITR.mmH (soluble monomeric hGITR, SEQ ID NO: 45) or 5 nM hGITR.mFc (dimeric Macaca fasicularis GITR, SEQ ID NO: 46) were injected over this surface for 5 minutes at a flow rate of 50 uL/min. Dissociation was measured for 10 min. The KD and t_{1/2} were calculated by fitting the double-referenced sensorgrams to a 1:1 binding model.
For the molecule B10, the Kd turned out to be 0.902 nM and the t1/2 came out at 9.55 min.

As to B11, the Kd came out at 0.137 nM and the t1/2 was determined as 35.6 min.

For the molecule B12, the Kd was 0.663 nM and the t1/2 came to 10 min.

For the molecule B13, the Kd is 0.882 nM and the t1/2 came to 5.56 min.

In a further test the target is B14. The test can be described thus: SPR Biacore T-200; purified antibody captured on anti-human Fc; 10 nM hGITR.mmH. Here is the method: as §2
Regarding B10, the Kd worked out at 11.3 nM and the t1/2 came to 2.8 min.

Turning to B11, the Kd is 1.51 nM and the t1/2 amounted to 6.75 min.

Turning to B12, the Kd was 8 nM and the t1/2 stood at 2.25 min.

On to B13, for which the Kd is 6.05 nM and the t1/2 is 4.65 min.

The next test addresses human GITR-L (6His.GCN4.G4Sx3.hGITR-L) (human, UniProt Q9UNG2 52-177). The test can be described thus: ELISA: hGITR.mmH (3.4 pM to 200 nM) on plate-coated hGITR-L, anti-cMyc-HRP detection. Here is the method:
FIG. 13 depicts effects of anti-GITR antibody on human GITR binding to human GITR-L. Binding of human GITR protein, hGITR.mmH, at a range of concentrations (3.4 pM to 200 nM) to immobilized human GITR-L was evaluated by ELISA and EC₅₀ values for binding were determined. A fixed concentration of recombinant hGITR.mmH (1.5 nM), based on the EC₅₀ values calculated for binding to hGITR-L, was pre-incubated with mAb1, or an IgG1 isotype control at a range of concentrations (51 pM to 3 μM) and added to wells containing immobilized human GITR-L to determine the ability of the antibodies to block hGITR.mmH binding to immobilized human GITR-L. Binding of hGITR.mmH was detected with an HRP-conjugated cMyc antibody using TMB substrate, and the OD₄₅₀ was measured by spectrophotometry.
The binding of recombinant hGITR to its ligand, hGITR-L, was determined using an enzyme-linked immunosorbent assay (ELISA)-based binding assay. […] Plate-bound hGITR.mmH was detected with horseradish peroxidase (HRP) conjugated goat anti-cMyc antibody at 0.33 μg/ml and visualized using the colorimetric HRP substrate 3-3′, 5-5′-tetramethylbenzidine (TMB) according to the manufacturer's recommended procedures. Absorbance data at 450 nm (OD₄₅₀) were plotted as a function of the concentration of recombinant hGITR.mmH. […]
In general terms: An ELISA detects its analyte on a solid surface through an enzyme-linked reagent.
For B14, the EC50 stood at 2.05 nM.

The target in a further test is T1, hGITR.mFc (dimeric recombinant human …). The test can be described thus: SPR Biacore 2000 25C; CHOt supernatant antibody captured on anti-human Fc; 50 nM hGITR.mFc. Here is the method: as §1
On to B10, for which the Kd is 1.27 nM and the t1/2 is 34.9 min.

On to B11, for which the equilibrium dissociation constant (Kd) was determined as 0.201 nM and the t1/2 worked out at 194 min.

For the molecule B1, the Kd was found to be 42.4 nM and the t1/2 stood at 0.47 min.

B6: the Kd worked out at 57.5 nM and the t1/2 came out at 0.45 min.

Turning to B12, the equilibrium dissociation constant (Kd) is 0.284 nM and the t1/2 worked out at 110 min.

On to B7, for which the equilibrium dissociation constant (Kd) is 47.5 nM and the t1/2 came to 0.64 min.

Regarding B13, the Kd was found to be 0.908 nM and the t1/2 is 37.7 min.

Turning to B9, the Kd was found to be 45.6 nM and the t1/2 was found to be 0.75 min.

For the next test, the target named is B14. As to the kind of experiment: SPR Biacore 2000 25C; CHOt supernatant antibody captured on anti-human Fc; 100 nM hGITR.mmH. The protocol: as §1
Take B10: the Kd stood at 109 nM and the t1/2 came out at 0.99 min.

With B11, the dissociation constant (Kd) was 24.9 nM and the t1/2 was 4.56 min.

Regarding B12, the Kd amounted to 61.3 nM and the t1/2 turned out to be 1.52 min.

As for B13, the equilibrium dissociation constant (Kd) is 81.9 nM and the t1/2 was 0.92 min.

As a reminder, the Kd is the concentration at which binding is half-saturated. The term EC50 denotes the concentration at which the effect is half-maximal.

The values are drawn from patent publication US20240076396A1 (Regeneron, published 2024).
